Test results reported in patent US20260150817A1.

Molecular target: Spike protein of the COVID-19 Spike-ACE2 Binding Assay Kit (Raybiotech) (SARS-CoV-2) (UniProt P0DTC2)

human SAT Nb-Fc control VH-Ab-8 (HAb8-S) (Fc fusion)
IC50: 0.079 nM
